Consider 1 substance from patent US20220267458A1.

In assay [1] the target is GITR protein overexpressed on Hela cells (Hela-GITR-NF-κB-Luc-Rep). Nature of the assay: cell-based or functional assay.
Assay [2] has as its target human GITR-His (human) (UniProt Q9Y5U5). Nature of the assay: ForteBio BLI, antibody on AHQ tip, human GITR-His 100 nM in solution.
Assay [3] shares this target. Described as above. This is another data set of the same source.
The target is the same in assay [4]. Put plainly: ForteBio BLI, antibody on AHQ tip, human GITR-His 100 nM in solution, 1:1 model.
Assay [5] deals with human GITR overexpressed on CHO cells (CHO-GITR) (human) (UniProt Q9Y5U5). Nature of the assay: flow cytometry on CHO-GITR cells, PE anti-human Fc detection, MFI; direct binding titration, the table row is labelled IC50, nM is taken from the concentration axis.
human GITR overexpressed on CHO cells (CHO-GITR) (human), sequence (Q9Y5U5 26-241): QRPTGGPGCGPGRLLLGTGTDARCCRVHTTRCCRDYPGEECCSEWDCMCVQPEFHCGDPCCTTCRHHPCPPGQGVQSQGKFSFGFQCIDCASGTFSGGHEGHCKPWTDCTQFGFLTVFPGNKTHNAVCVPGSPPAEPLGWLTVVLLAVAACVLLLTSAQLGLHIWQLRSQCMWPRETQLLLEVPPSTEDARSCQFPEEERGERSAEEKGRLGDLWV

human GITR-His (human), sequence (Q9Y5U5 other isoform, or with tags, fused parts or gaps): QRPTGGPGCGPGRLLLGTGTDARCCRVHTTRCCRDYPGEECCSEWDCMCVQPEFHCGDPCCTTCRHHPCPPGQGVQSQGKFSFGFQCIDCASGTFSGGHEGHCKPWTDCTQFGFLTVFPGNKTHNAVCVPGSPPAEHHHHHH

Substance TRX518 (antibody) showed an EC50 for the activation (NF-κB luciferase reporter) in assay [1] of 2.1 nM. In assay [2], this substance showed a Kd of 8.53 nM, an off-rate constant (koff) of 0.00292 s⁻¹ and an on-rate (kon) of 342000 M⁻¹ s⁻¹. In assay [3], this substance registered an equilibrium dissociation constant (Kd) of 9.62 nM, an off-rate constant (koff) of 0.00206 s⁻¹ and an association rate constant (kon) of 214000 M⁻¹ s⁻¹. In assay [4], this substance yielded a Kd of 26.2 nM, a dissociation rate constant (koff) of 0.00484 s⁻¹ and a kon of 185000 M⁻¹ s⁻¹. The substance also registered an EC50 for binding in assay [5] of 0.242 nM.
